For one data set, the target named is LexA wt (UniProt P0A7C2 1-202). The experiment in a line: SPR; 150 nM LexA; LexA-operator SPR: 20 mM NaH2PO4 pH 7.3, 0.14 M NaCl, 0.005% P20, 25 C; RecA-SKBT25: 20 mM NaH2PO4 pH 7.3, 1 mM ATPgS, 2 mM MgCl2, 0.05 mM Ellman's reagent, on. Particulars: protein: recombinant; chain copies: 2; label: 3' TEG-biotin on S9; S7 pairs with the 3' 24 nt and S9 with the 5' 15 nt of S10; nick between S7 and S9; blunt. A general note: Surface plasmon resonance follows binding to a sensor surface in real time, without labels.

Data set [1] concerns the molecule itself. The experiment in a line: cross-linking; intermolecular disulphide between Cys24 of two LexA(M24C) subunits on oxidation with 0.5 mM 1,10-phenanthroline and 0.1 mM CuSO4, 30 min, room temperature.

B1: tisB operator SPR fragment (dsDNA)
DNA 1: GTTACTACTCGAGCGATTACTGTTTATTTATACAGTAAA
DNA 2: TTTACTGTATAAATAAACAGTAAT
DNA 3: CGCTCGAGTAGTAAC
As to B1, the binding result in the data set with LexA wt is “binds”.

B2: LexA(M24C), oxidized (disulphide-locked dimer in the DNA-binding state) (natural protein, E. coli, UniProt P0A7C2 1-202, looked up)
chain: MKALTARQQEVFDLIRDHISQTGCPPTRAEIAQRLGFRSPNAAEEHLKALARKGVIEIVSGASRGIRLLQEEEEGLPLVGRVAAGEPLLAQQHIEGHYQVDPSLFKPNADFLLRVSGMSMKDIGIMDGDLLAVHKTQDVRNGQVVVARIDDEVTVKRLKKQGNKVELLPENSEFKPIVVDLRQQSFTIEGLAVGVIRNGDWL
modifications: intermolecular disulphide bond between the Cys24 residues of the two subunits
notes: LexA repressor, E. coli, single-cysteine mutant M24C; The reduced form (20 mM DTT) was also used in the cleavage assay but is not made a molecule here; also called oxidized LexA(M24C); source: overexpressed from plasmid pLexAM24C, purified (Ni-NTA); oxidized with 0.5 mM 1,10-phenanthroline and 0.1 mM CuSO4, 30 min, room temperature
For B2, the binding result in data set [1] was “binds”.

For the origin of these results see article PMC3834820, “Structural insight into LexA–RecA* interaction” (Nucleic Acids Research, 2013).
